{"source": "patent US20020031818A1", "about": "“Modification of Mdm2 activity” (priority 2000, published 2002)", "test_system": "Mdm2", "assay": "In vivo ubiquitination of Mdm2 in EJ cells (HA-Ub, Mdm2 immunoprecipitation)", "type": "cell-based, mouse", "details": "forced expression in EJ p19 null cells", "description": "FIG. 14A-14E. A. In vitro ubiquitination of Mdm2 is inhibited by p19^ARF. GST-Mdm2 was subjected to an in vitro ubiquitination reaction using purified forms of E1, E2 and Ub-HA in the presence of ATP. Addition of bacculovirus-purified p19^ARF at the indicated concentrations blocked Mdm2 ubiquitination. Glutathione bead-coupled GST-Mdm2 in its ubiquitinated or non-ubiquitinated forms was washed and analyzed on immunoblots using antibodies to HA (upper panel). Middle panel depicts the level of Mdm2 expression and the lower panel, the level of p19^ARF added to the reaction. B. p19^ARF expression increases Mdm2 self-ubiquitination in EJ cells. EJ cells were transfected with the indicated plasmids. Cells were harvested 36 h later and proteins ([…]) were immunoprecipitated using Mdm2 antibodies (2A10). Immunoprecipitated material was washed and proteins loaded onto 10% SDS-PAGE, followed by immunoblot analysis with HA-antibodies to detect covalent HA-ubiquitin conjugation to Mdm2 (upper panel). Middle panel depicts level of immunoprecipitated Mdm2. Lower panel represents western analysis of p19^ARF expression levels. C. In vitro ubiquitination of Mdm2 in the presence of p19^ARF and protein extracts. […] The level of p53 immunoprecipitated was monitored in immunoblots using polyclonal antibodies to p53 (middle). […]", "data": [{"molecule": "p19^ARF: Mdm2-regulating protein; in vitro translated, bacculovirus-expressed or transfected (protein) MGRRFLVTVRIQRAGRPLQERVFLVKFVRSRRPRTASCALAFVNMLLRLERILRRGPHRNPGPGDDDGQRSRSSSSAQLRCRFELRGPHYLLPPGARRSAGRLPGHAGGAARVRGSAGCARCLGSPAARLGPRAGTSRHRAIFAFRWVLFVFRWVVFVYRWERRPDRRA", "values": [{"measurement": "degree of Mdm2 ubiquitination in vivo", "value": "noticeable increase in the degree of Mdm2 ubiquitination"}]}]}
